Measurements as given in US20080206268A1 (RIJKSUNIVERSITEIT TE LEIDEN, published 2008).

B1: HA-1^H/R polymorphic region peptide No. 22, RDDLLEARR (peptide)
peptide: RDDLLEARR
notes: synthetic peptide; also called nonameric HA-1^R peptide
B2: HA-1^H/R polymorphic region peptide No. 6, LKECVLRDD (peptide)
peptide: LKECVLRDD
notes: as for B1
B3: HA-1^H/R polymorphic region peptide No. 20, LRDDLLEAR (peptide)
peptide: LRDDLLEAR
notes: as for B1
B4: HA-1^H/R polymorphic region peptide No. 2, EKLKECVLR (peptide)
peptide: EKLKECVLR
notes: as for B1
B5: HA-1^H/R polymorphic region peptide No. 14, CVLRDDLLE (peptide)
peptide: CVLRDDLLE
notes: as for B1
B6: nonameric HA-1^R peptide KECVLRDDL (peptide)
peptide: KECVLRDDL
notes: synthetic peptide; also called Peptide No. 8
B7: HA-1^H/R polymorphic region peptide No. 4, KLKECVLRD (peptide)
peptide: KLKECVLRD
notes: as for B1
B8: peptide ECVLRDDLL (peptide)
peptide: ECVLRDDLL
notes: synthetic peptide; also called Peptide No. 12; nonameric HA-1^R peptide
B9: decameric HA-1^R peptide VLRDDLLEAR (peptide)
peptide: VLRDDLLEAR
notes: synthetic peptide; also called Peptide No. 18
B10: HLA-A3 binder-positive control peptide KQSSKALQR (peptide)
peptide: KQSSKALQR

What follows are binders tested against HLA-A24 on HLA typed EBV-LCLs (human) (assay: cell-based competition HLA peptide binding assay, flow cytometry;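 further: cells given mild acid treatment, then held in medium with 2% FCS and β2 microglobulin, read out as mean cell fluorescence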).
Experimental: (§1) Immediately after mild acidic treatment, the cells were washed with 12 ml Iscove's modified Dulbecco's medium (IMDM, Bio Whittaker, Belgium) containing 2% FCS and resuspended in IMDM containing 2% FCS, 1.5 μg/ml β2 microglobulin (Sigma, St. Louis, Mo., US). […] The mean fluorescence expressed by the cells was determined by a FACScalibur flow cytometer (Becton-Dickinson, St. Louis, Mo., US).

binding result	Binder
no binding (tested: 100 to 0.78 µM)	B1
no binding (tested: 100 to 0.78 µM)	B2
no binding (tested: 100 to 0.78 µM)	B3
no binding (tested: 100 to 0.78 µM)	B4
no binding (tested: 100 to 0.78 µM)	B5
no binding (tested: 100 to 0.78 µM)	B6
no binding (tested: 100 to 0.78 µM)	B7
no binding (tested: 100 to 0.78 µM)	B8

Each binder was assayed against HLA-A11 on HLA typed EBV-LCLs (human) in the same assay as above.
Experimental: as §1

binding result	Binder
no binding (tested: 100 to 0.78 µM)	B1
no binding (tested: 100 to 0.78 µM)	B2
no binding (tested: 100 to 0.78 µM)	B3
no binding (tested: 100 to 0.78 µM)	B4
no binding (tested: 100 to 0.78 µM)	B5
no binding (tested: 100 to 0.78 µM)	B6
no binding (tested: 100 to 0.78 µM)	B7
no binding (tested: 100 to 0.78 µM)	B8

What follows are binders tested against HLA-A1 on HLA typed EBV-LCLs (human) in the same assay as above.
Experimental: as §1

binding result	Binder
no binding (tested: 100 to 0.78 µM)	B1
no binding (tested: 100 to 0.78 µM)	B2
no binding (tested: 100 to 0.78 µM)	B3
no binding (tested: 100 to 0.78 µM)	B4
no binding (tested: 100 to 0.78 µM)	B5
no binding (tested: 100 to 0.78 µM)	B6
no binding (tested: 100 to 0.78 µM)	B7
no binding (tested: 100 to 0.78 µM)	B8

These binders were tested against HLA-B7 on HLA typed EBV-LCLs (human) in the same assay as above.
Experimental: as §1

binding result	Binder
no binding (tested: 100 to 0.78 µM)	B1
no binding (tested: 100 to 0.78 µM)	B2
no binding (tested: 100 to 0.78 µM)	B3
no binding (tested: 100 to 0.78 µM)	B4
no binding (tested: 100 to 0.78 µM)	B5
no binding (tested: 100 to 0.78 µM)	B6
no binding (tested: 100 to 0.78 µM)	B7
no binding (tested: 100 to 0.78 µM)	B8

The binders below were run against HLA-B60 on HLA typed EBV-LCLs (human) (assay: cell-based competition on acid-treated EBV-LCLs against 150 nM fluorescent reference peptide, flow cytometry).
Experimental: as §1

IC50	Binder
3.9 µM	B6

The binders below were run against HLA-A3 on HLA typed EBV-LCLs (human) in the same assay as above.
Experimental: as §1

IC50	Binder
37.5 µM	B9
9.4 µM	B10
